Source: EP3623383A1 (Deutsches Krebsforschungszentrum, Stiftung des öffentlichen …, dated 2020)
Residue numbers refer to the chain shown, from its start.

T1: His tagged, recombinant FLT3 protein (Sino Biologicals) (human, UniProt P36888 27-541, limits assumed)
T1 construct: also called soluble recombinant FLT3 protein; not shown: His tag
T1 sequence (looked up): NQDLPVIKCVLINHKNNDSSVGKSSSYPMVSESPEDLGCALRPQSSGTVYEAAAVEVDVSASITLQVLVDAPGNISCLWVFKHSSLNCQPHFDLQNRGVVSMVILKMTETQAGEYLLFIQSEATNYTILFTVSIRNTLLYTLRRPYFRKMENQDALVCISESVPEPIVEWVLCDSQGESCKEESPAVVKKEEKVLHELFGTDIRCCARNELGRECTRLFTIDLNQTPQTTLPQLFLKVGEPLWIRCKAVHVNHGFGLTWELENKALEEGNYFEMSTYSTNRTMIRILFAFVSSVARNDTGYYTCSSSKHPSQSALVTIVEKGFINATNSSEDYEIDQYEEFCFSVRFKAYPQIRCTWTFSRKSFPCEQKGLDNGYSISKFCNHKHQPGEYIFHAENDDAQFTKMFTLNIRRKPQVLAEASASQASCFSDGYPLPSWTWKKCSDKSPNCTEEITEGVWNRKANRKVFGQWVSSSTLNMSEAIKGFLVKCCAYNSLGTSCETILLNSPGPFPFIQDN

T2: FLT3 as expressed on cells (NALM16 cells, FLT3+) (human, UniProt P36888 27-993)
T2 construct: whole, on cells; Endogenous FLT3 of a human leukemia cell line; also called Nalm16 cells expressing FLT3
T2 sequence (looked up): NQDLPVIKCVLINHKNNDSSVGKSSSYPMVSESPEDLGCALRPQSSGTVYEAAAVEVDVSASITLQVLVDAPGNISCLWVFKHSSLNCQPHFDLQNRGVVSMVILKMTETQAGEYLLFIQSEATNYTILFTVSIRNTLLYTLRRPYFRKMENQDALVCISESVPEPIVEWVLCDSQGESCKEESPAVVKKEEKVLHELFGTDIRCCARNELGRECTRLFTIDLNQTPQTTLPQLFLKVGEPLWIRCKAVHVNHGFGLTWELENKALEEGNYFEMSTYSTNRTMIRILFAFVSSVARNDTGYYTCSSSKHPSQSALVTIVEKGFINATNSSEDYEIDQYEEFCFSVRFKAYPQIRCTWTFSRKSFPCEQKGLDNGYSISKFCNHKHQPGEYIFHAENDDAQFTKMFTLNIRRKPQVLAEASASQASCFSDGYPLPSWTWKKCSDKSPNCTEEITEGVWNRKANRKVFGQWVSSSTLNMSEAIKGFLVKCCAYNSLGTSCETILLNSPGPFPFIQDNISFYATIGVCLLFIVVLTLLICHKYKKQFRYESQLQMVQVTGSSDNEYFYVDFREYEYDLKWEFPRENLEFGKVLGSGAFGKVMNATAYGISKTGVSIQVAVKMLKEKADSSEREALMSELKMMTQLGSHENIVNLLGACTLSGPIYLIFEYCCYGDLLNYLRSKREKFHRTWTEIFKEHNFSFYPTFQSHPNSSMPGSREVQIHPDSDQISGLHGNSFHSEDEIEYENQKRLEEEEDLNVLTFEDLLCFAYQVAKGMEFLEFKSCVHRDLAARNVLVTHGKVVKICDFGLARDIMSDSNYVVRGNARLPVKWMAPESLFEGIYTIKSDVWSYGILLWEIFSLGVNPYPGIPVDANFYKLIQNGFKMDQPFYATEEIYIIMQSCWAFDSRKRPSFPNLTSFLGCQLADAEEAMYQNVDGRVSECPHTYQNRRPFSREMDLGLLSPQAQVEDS

B1: V2-V6 (CC-2 variant 2, bispecific FLT3xCD3 IgGsc antibody) (bispecific antibody)
heavy: QVQLVQSGAEVKKPGGSLRLSCAASGYTFTSYWMHWVRQAPGQGLEWIGEIDPSDSYTDYAQKFKDRVTISRDTSKNTLYLQLSSLRAEDTAVYYCARAITTTPFDFWGQGTLVTVSSASTKGPSVFPLAPSSKSTSGGTAALGCLVKDYFPEPVTVSWNSGALTSGVHTFPAVLQSSGLYSLSSVVTVPSSSLGTQTYICNVNHKPSNTKVDKKVEPKSCDKTHTCPPCPAPPVAGPSVFLFPPKPKDTLMISRTPEVTCVVVGVSHEDPEVKFNWYVDGVEVHNAKTKPREEQYNSTYRVVSVLTVLHQDWLNGKEYKCKVSNKQLPSPIEKTISKAKGQPREPQVYTLPPSRDELTKNQVSLTCLVKGFYPSDIAVEWESNGQPENNYKTTPPVLDSDGSFFLYSKLTVDKSRWQQGNVFSCSVMHEALHNHYTQKSLSLSPGKSGDIQMTQSPSSLSASVGDRVTITCRASQDIRNYLNWYQQKPGKAPKLLIYYTSRLESGVPSRFSGSGSGTDYTLTISSLQPEDFATYYCQQGNTLPWTFGQGTKVEIKGGGGSGGGGSGGGGSEVQLVESGGGLVQPGGSLRLSCAASGYSFTGYTMNWVRQAPGKGLEWVALINPYKGVSTYNQKFKDRFTISVDKSKNTAYLQMNSLRAEDTAVYYCARSGYYGDSDWYFDVWGQGTLVTVSS
light: EIVMTQSPATLSVSPGERATLSCRASQSISNNLHWYQQKPGQAPRLLIKYASQSISGIPARFSGSGSGTEFTLTISSLQSEDFAVYFCQQSNTWPYTFGGGTKLEIKTVAAPSVFIFPPSDEQLKSGTASVVCLLNNFYPREAKVQWKVDNALQSGNSQESVTEQDSKDSTYSLSSTLTLSKADYEKHKVYACEVTHQGLSSPVTKSFNRGEC
notes: IgGsc format, Fc-attenuated; also called Version 2; Humanized 4G8 FLT3 variable region Variant 2 with V6 CD3 scFv
B2: V5-V6 (CC-2 variant 5, bispecific FLT3xCD3 IgGsc antibody) (bispecific antibody)
heavy: B1 heavy with T58K, A61N
light: B1 light
notes: IgGsc format, Fc-attenuated; also called Version 5; Humanized 4G8 FLT3 variable region Variant 5 with V6 CD3 scFv
B3: V1-V6 (CC-2 variant 1, bispecific FLT3xCD3 IgGsc antibody) (bispecific antibody)
heavy: B1 heavy
light: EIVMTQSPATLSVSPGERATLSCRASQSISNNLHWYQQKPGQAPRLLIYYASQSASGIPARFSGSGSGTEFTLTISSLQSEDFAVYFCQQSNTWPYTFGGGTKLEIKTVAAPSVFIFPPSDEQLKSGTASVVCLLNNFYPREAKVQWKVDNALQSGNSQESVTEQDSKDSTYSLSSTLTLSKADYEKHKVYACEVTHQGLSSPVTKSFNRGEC
notes: also called Version 1; Humanized 4G8 FLT3 variable region Variant 1 with V6 CD3 scFv
B4: V3-V6 (CC-2 variant 3, bispecific FLT3xCD3 IgGsc antibody) (bispecific antibody)
heavy: QVQLVQSGAEVKKPGASVKVSCKASGYTFTSYWMHWVRQAPGQGLEWIGEIDPSDSYKDYNQKFKDRVTMTRDTSTSTVYMELSSLRSEDTAVYYCARAITTTPFDFWGQGTTVTVSSASTKGPSVFPLAPSSKSTSGGTAALGCLVKDYFPEPVTVSWNSGALTSGVHTFPAVLQSSGLYSLSSVVTVPSSSLGTQTYICNVNHKPSNTKVDKKVEPKSCDKTHTCPPCPAPPVAGPSVFLFPPKPKDTLMISRTPEVTCVVVGVSHEDPEVKFNWYVDGVEVHNAKTKPREEQYNSTYRVVSVLTVLHQDWLNGKEYKCKVSNKQLPSPIEKTISKAKGQPREPQVYTLPPSRDELTKNQVSLTCLVKGFYPSDIAVEWESNGQPENNYKTTPPVLDSDGSFFLYSKLTVDKSRWQQGNVFSCSVMHEALHNHYTQKSLSLSPGKSGDIQMTQSPSSLSASVGDRVTITCRASQDIRNYLNWYQQKPGKAPKLLIYYTSRLESGVPSRFSGSGSGTDYTLTISSLQPEDFATYYCQQGNTLPWTFGQGTKVEIKGGGGSGGGGSGGGGSEVQLVESGGGLVQPGGSLRLSCAASGYSFTGYTMNWVRQAPGKGLEWVALINPYKGVSTYNQKFKDRFTISVDKSKNTAYLQMNSLRAEDTAVYYCARSGYYGDSDWYFDVWGQGTLVTVSS
light: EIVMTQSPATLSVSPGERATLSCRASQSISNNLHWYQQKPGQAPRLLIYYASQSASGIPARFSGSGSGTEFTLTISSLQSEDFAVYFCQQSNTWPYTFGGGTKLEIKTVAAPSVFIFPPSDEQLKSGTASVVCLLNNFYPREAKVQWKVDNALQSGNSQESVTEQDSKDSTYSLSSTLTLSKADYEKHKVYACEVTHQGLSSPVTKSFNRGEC
notes: also called Version 3; Humanized 4G8 FLT3 variable region Variant 3 with V6 CD3 scFv
B5: V4-V6 (CC-2 variant 4, bispecific FLT3xCD3 IgGsc antibody) (bispecific antibody)
heavy: B4 heavy
light: B1 light
notes: IgGsc format, Fc-attenuated; also called Version 4; variant V4
B6: V6-V8 (CC-2 variant, parental 4G8 FLT3 domain with UCHT1 CD3 scFv variant V8) (bispecific antibody, human IgG1, kappa)
heavy: QVQLQQPGAELVKPGASLKLSCKSSGYTFTSYWMHWVRQRPGHGLEWIGEIDPSDSYKDYNQKFKDKATLTVDRSSNTAYMHLSSLTSDDSAVYYCARAITTTPFDFWGQGTTLTVSSASTKGPSVFPLAPSSKSTSGGTAALGCLVKDYFPEPVTVSWNSGALTSGVHTFPAVLQSSGLYSLSSVVTVPSSSLGTQTYICNVNHKPSNTKVDKKVEPKSCDKTHTCPPCPAPPVAGPSVFLFPPKPKDTLMISRTPEVTCVVVGVSHEDPEVKFNWYVDGVEVHNAKTKPREEQYNSTYRVVSVLTVLHQDWLNGKEYKCKVSNKQLPSPIEKTISKAKGQPREPQVYTLPPSRDELTKNQVSLTCLVKGFYPSDIAVEWESNGQPENNYKTTPPVLDSDGSFFLYSKLTVDKSRWQQGNVFSCSVMHEALHNHYTQKSLSLSPGKSGDIQMTQSPSSLSASVGDRVTITCRASQDIRNYLNWYQQKPGKAPKLLIYYTSRLESGVPSRFSGSGSGTDYTLTISSLQPEDFATYYCQQGNTLPWTFGQGTKVEIKGGGGSGGGGSGGGGSEVQLVESGGGLVQPGGSLRLSCAASGYSFTGYTMNWVRQAPGKGLEWVALINPYKGVSTYNQKFKDRFTISVDDSKNTAYLQMNSLRAEDTAVYYCARSGYYGDSDWYFDVWGQGTLVTVSS
light: DIVLTQSPATLSVTPGDSVSLSCRASQSISNNLHWYQQKSHESPRLLIKYASQSISGIPSRFSGSGSGTDFTLSINSVETEDFGVYFCQQSNTWPYTFGGGTKLEIKRTVAAPSVFIFPPSDEQLKSGTASVVCLLNNFYPREAKVQWKVDNALQSGNSQESVTEQDSKDSTYSLSSTLTLSKADYEKHKVYACEVTHQGLSSPVTKSFNRGEC
notes: IgGsc format, Fc-attenuated
B7: V6-V9 (CC-2 variant, parental 4G8 FLT3 domain with UCHT1 CD3 scFv variant V9) (bispecific antibody, human IgG1, kappa)
heavy: QVQLQQPGAELVKPGASLKLSCKSSGYTFTSYWMHWVRQRPGHGLEWIGEIDPSDSYKDYNQKFKDKATLTVDRSSNTAYMHLSSLTSDDSAVYYCARAITTTPFDFWGQGTTLTVSSASTKGPSVFPLAPSSKSTSGGTAALGCLVKDYFPEPVTVSWNSGALTSGVHTFPAVLQSSGLYSLSSVVTVPSSSLGTQTYICNVNHKPSNTKVDKKVEPKSCDKTHTCPPCPAPPVAGPSVFLFPPKPKDTLMISRTPEVTCVVVGVSHEDPEVKFNWYVDGVEVHNAKTKPREEQYNSTYRVVSVLTVLHQDWLNGKEYKCKVSNKQLPSPIEKTISKAKGQPREPQVYTLPPSRDELTKNQVSLTCLVKGFYPSDIAVEWESNGQPENNYKTTPPVLDSDGSFFLYSKLTVDKSRWQQGNVFSCSVMHEALHNHYTQKSLSLSPGKSGEVQLVESGGGLVQPGGSLRLSCAASGYSFTGYTMNWVRQAPGKGLEWVALINPYKGVSTYNQKFKDRFTISVDKSKNTAYLQMNSLRAEDTAVYYCARSGYYGDSDWYFDVWGQGTLVTVSSGGGGSGGGGSGGGGSDIQMTQSPSSLSASVGDRVTITCRASQDIRNYLNWYQQKPGKAPKLLIYYTSRLESGVPSRFSGSGSGTDYTLTISSLQPEDFATYYCQQGNTLPWTFGQGTKVEIK
light: B6 light
notes: IgGsc format, Fc-attenuated
B8: V6-V6 (CC-2, FLT3 (4G8) x CD3 (humanized UCHT1) bispecific IgGsc antibody) (bispecific antibody)
heavy: B6 heavy with D645K
light: B6 light
notes: Mouse 4G8 variable regions on human IgG1 constant regions, Fc-attenuated, C-terminal humanized UCHT1 scFv; also called mouse FLT3xCD3 bispecific antibody
B9: V6-V7 (CC-2 variant, parental 4G8 FLT3 domain with UCHT1 CD3 scFv variant V7) (bispecific antibody, human IgG1, kappa)
heavy: B6 heavy with N632A, Q633D, K634S, D637G
light: B6 light
notes: IgGsc format, Fc-attenuated

The binders below were run against T1, His tagged, recombinant FLT3 protein … (assay: SPR (Biacore X); antibody captured on protein A chip, His-tagged FLT3 in solution).

Binder	Kd [nM]	koff [s⁻¹]	kon [M⁻¹ s⁻¹]
B1	88000	0.0318	540
B2	160	0.00449	29600
B3	63000	0.022	489
B4	87000	0.0233	276
B5	480	0.00887	18800

What follows are binders tested against T3, CD3 as expressed on Jurkat cells (CD3+) (human, UniProt P07766 23-207) (assay: flow cytometry on CD3+ Jurkat cells; value told of the CD3 binding part shared by V1 to V5).
T3 construct: whole, on cells; CD3 is a complex of several chains; also called Jurkat cells expressing CD3
T3 sequence (P07766 23-207): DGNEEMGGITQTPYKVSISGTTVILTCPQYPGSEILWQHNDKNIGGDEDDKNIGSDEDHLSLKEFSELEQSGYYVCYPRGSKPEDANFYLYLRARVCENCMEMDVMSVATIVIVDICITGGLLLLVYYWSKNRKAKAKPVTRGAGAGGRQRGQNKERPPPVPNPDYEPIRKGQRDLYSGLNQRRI

Binder	EC50 [nM]
B1	~10
B2	~10
B3	~10
B4	~10
B5	~10

What follows are binders tested against T2, FLT3 as expressed on cells (NALM16 …) (assay: flow cytometry on FLT3+ NALM16 cells; value told of the FLT3 binding part shared by V6 to V9).

Binder	EC50 [nM]
B6	~1
B7	~1
B8	~1
B9	~1
